Common to all, as to assay: purified protein
Format in all cases: biochemical, Dictyostelium discoideum

Substrate in data set [1]: CCn1c(=NN=c2sc3cc(S(=O)(=O)O)ccc3n2CC)sc2cc(S(=O)(=O)O)ccc21
As to conditions: 1 mM H2O2, 50 mM sodium acetate pH 4.0, 150 mM NaCl, 25 °C.

Substrate in data set [2]: COc1ccc(CO)cc1OC
Conditions: 1 mM H2O2, 50 mM sodium acetate pH 4.0, 150 mM NaCl, 25 °C.

Substrate in data set [3]: Nc1c(S(=O)(=O)O)cc(Nc2ccc(S(=O)(=O)O)c(Nc3nc(Cl)nc(Cl)n3)c2)c2c1C(=O)c1ccccc1C2=O
Conditions: 1 mM H2O2, 50 mM sodium citrate pH 3.0, 150 mM NaCl, 25 °C.

B1: Dictyostelium DyPA (Dictyostelium discoideum) (protein)
chain: MAQSTVLPMHCLYGIFLEGNLKIQKNDQEGLKKFKDNIKKFTLELDEIDKISPQSRIGGAICFSSDIWDTVTKKISKPKELKSVNTLSSYMPGTSQRDILIHIISDRMDTCFKLAQDTMRNFGEDQLDIKQEIHGFRRVEERDLTDFIDGTENPDGDELRTQYGLVAAGQPNEFGSYVFTQRYVHNLKKWYPEPLSVQQDTVGRTKKDSIEIPRDKRPITSHVSRTDLSENGKDLKIVRQSLPYGQITGEKGLMFIAYACSLHNIEKQLQSMFGQLDGKHDLLLKYTTPVTGSFYFAPSKKELLEL
notes: recombinant from E. coli Rosetta(DE3)pLysS, heme-reconstituted with hemin; homodimer
B1: in data set [1], the Km turned out to be 4100 ± 400 µM, the kcat stood at 89.9 ± 4.3 s⁻¹ and the catalytic efficiency (kcat/Km) is 21900 M⁻¹ s⁻¹. Further, in data set [2], the Michaelis-Menten constant (Km) stood at 166 ± 58 µM, the kcat was found to be 0.000338 ± 3.5e-05 s⁻¹ and the catalytic efficiency (kcat/Km) came out at 2.03 M⁻¹ s⁻¹. Moreover, in data set [3], the Michaelis-Menten constant (Km) came to 40 ± 10 µM, the turnover number (kcat) turned out to be 5.2 ± 0.38 s⁻¹ and the specificity constant (kcat/Km) stood at 130000 M⁻¹ s⁻¹.

A word on the Km: it is the concentration of substrate that gives half-maximal velocity. By kcat is commonly meant the maximal rate divided by the concentration of active sites. The kcat/Km is the turnover number divided by the Michaelis constant.

The record behind these values is paper PMC8230527, “Structural and Biochemical Characterization of a Dye-Decolorizing Peroxidase from Dictyostelium discoideum” (International Journal of Molecular Sciences, 2021).
